From patent US10508147B2, “Anti-nodal antibodies and methods of using same” (ANN AND ROBERT H. LURIE CHILDREN'S HOSPITAL OF CHICAGO, priority 2014, dated 2019)
“Also recorded” adds a separate entry of the source.

Columns and labels:
[1] = biological target: T1, hNodal(44-67) peptide (Homo sapiens, UniProt Q96S42); test: ELISA screening of hybridoma supernatants on coated hNodal(44-67) and hNodal(44-67)E49A-E50A; type: binding; settings: peptides coated at 330 nM; supernatants at 5.0 μg/mL (33 nM)
T1 construct: made in house; host or cells: chemical synthesis (Fmoc solid phase)
Protocol: (§1) Screening of hybridoma supernatants was carried out by ELISA coating the hNodal(44-67) BSA-conjugated peptide. Nine clones were positive. The pre-selected hybridoma supernatants were screened using in parallel hNodal(44-67) and its mutated variant hNodal(44-67)E49A-E50A. The assay was performed coating the unconjugated peptides at 330 nM and testing the hybridoma supernatants at a total protein concentration of 5.0 μg/mL (33 nM).
(§2) For hybridoma supernatants screening, hNodal(44-67) and hNodal(44-67)E49A-E50A were coated at 330 nM diluted in PBS on polystyrene conical flat bottom 96-well plates at 4° C. overnight (100 μL/well). After incubation, the coated wells were washed three times with PBS containing 0.005% Tween-20 (PBS-T) and non-specific binding sites were blocked by incubating with 1% BSA in PBS (300 μL/well) for 1 h at 37° C. After washing three times with PBS-T, supernatants of hybridomas diluted in PBS at 33 nM were incubated for 1 h at 37° C. (100 μL/well). […] After incubation and three washes with PBS-T, bound antibodies were detected by adding 100 μL/well of freshly prepared 0-phenylenediamine (0.4 mg/mL) containing H2O2 (0.4 mg/mL) in 0.1 M citrate buffer (pH 5.2) (SIGMAFAST™ OPD tablet Sigma-Aldrich). The peroxidase reaction was stopped after 5 min with 50 μL/well of 2.5 M H2SO4 and the optical density was measured at 490 nm, using a microplate reader. […]

[2] = tested on: hNodal(44-67) peptide; test: as above; type: binding, human; settings: ELISA
Protocol: as §1, §2

[3] = biological target: T2, endogenous Nodal protein (Homo sapiens, UniProt Q96S42); test: Western blot detection of endogenous Nodal in human melanoma cell lysates with 3D1; type: binding; settings: 3D1 at 2 μg/mL; panel of human melanoma cell lines and HEK-293
T2 construct: recognize the endogenous forms of Nodal protein in human melanoma cells; endogenous in cells; host or cells: human melanoma lines PES, A-375, SK-MEL, WM 266, LCM (blot)
T2 sequence (Q96S42 238-347): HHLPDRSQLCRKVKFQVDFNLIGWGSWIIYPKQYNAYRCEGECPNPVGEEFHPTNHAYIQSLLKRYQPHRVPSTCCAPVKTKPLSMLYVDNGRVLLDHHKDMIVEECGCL
Protocol: Western blot analyses for the detection of endogenous Nodal protein were performed using the following human skin malignant melanoma cell lines: PES, A-375, SK-MEL, WM 266 and LCM. HEK-293 (human embryonic kidney) cells and 100 ng of rhNodal protein were used as positive controls. Cells were lysed performing three freeze/thaw cycles in 50 mM Tris-HCl pH 7.5, 500 mM NaCl, 1% NP-40, 10 mM EDTA, 1 mM MgCl2, 1 mM CaCl2, 10% Glycerol, with an added cocktail of protease inhibitors and PMSF (phenyl-methanesulfonylfluoride). Cell lysates were cleared by centrifugation at 12,000 rpm for 20 min at 4° C. and the supernatants were quantified by Bradford assay. 50 μg of cell lysate from each sample were applied to a 15% SDS-PAGE gel under reducing conditions and electrophoresed for 3 h at 80 V. Separated proteins were transferred onto a polyvinylidene difluoride (PVDF) membrane (Millipore), previously soaked in methanol 100% for 5 min. […] The target protein was detected using the enhanced chemi-luminescent substrate method with the SuperSignal West Pico kit provided by Pierce Chemical Co. following the manufacturer's instructions. Signals were acquired with the ChemiDoc XRS video densitometer using the Quantity One software.

[4] = tested on: A375SM human melanoma cell line; test: Western blot of A375SM cells treated with BRAFi (dabrafenib) or 3D1; type: cell-based; settings: 72 hr
Protocol: To determine the level of Nodal expression in brain, kidney, liver, pancreas, heart and skeletal muscle ready to use adult tissue extracts for Western blotting (WB) were purchased from Santa Cruz Biotechnology. For WB experiments of cell lines, whole cell lysates were prepared and quantified. SDS-PAGE gel electrophoresis and WB were performed using standard techniques. PVDF membranes were blocked in 5% non-fat milk or 5% BSA and antibodies diluted in either 5% non-fat milk or 5% bovine serum albumin overnight at 4° C., depending on the manufacturer's recommendations. Signal was detected using West Pico chemiluminescence reagent (Thermo Fisher) and exposure to x-ray film.

[5] = biological target: T3, recombinant Nodal (Homo sapiens, UniProt Q96S42); test: SPR dose-dependent binding of human recombinant Nodal to 3D1 immobilized on the CM5 sensor chip; parameters: E. coli derived His238 Leu347, with an N-terminal Met; purchased R&D System 3218ND; host or cells: E. coli; settings: rhNodal injected, read-out: estimated KD
T3 sequence (Q96S42 238-347): T2 sequence (Q96S42 238-347)
Text: Dose-dependent binding of human recombinant Nodal to 3D1 antibody immobilized on the CM5 sensor chip was characterized.

B1: 3D1: mouse monoclonal anti-Nodal antibody raised against hNodal(44-67); light chain SEQ ID NO:1, heavy chains SEQ ID NO:2 and 3 (protein)
light: DIKMTQSPASLSASVGETVTITCRASGNIHNYLAWYQQKQGKSPQLLVYNAKTLADGVPSRFSGSGSGTQYSLKINSLQPEDFGSYYCQHFWSTPHVRCWDQAGTETEAW
heavy 1: VKLVESGGGLVKPGGSLKLSCAASGFTFSSYAMSWVRQTPEKRLEWVASISSGGCTYYPDSVKGRFTISRDNARNILYLQMSSLRSEDTAMYYCARGSMITADGNSLLLCYGLLGSRNLXHR
heavy 2: VKLVESGGGLVQPGGSMKLSCVASGFTFRNYWMSWVRQSPEKGLEWVAEIRLKSDNYAARYAESVKGKFTISRDDSKSRLYLQMNSLRAEDTGIYYCTGIRRFAYWGQGTL
modifications: not fully specified; (120)..(120) Xaa can be any naturally occurring amino acid
- recognition of the immobilized antigen hNodal(44-67) [1]: recognized the immobilized antigen
- recognition of wild-type hNodal peptide versus E49A-E50A mutated variant [2]: displayed selectivity for wild type Nodal peptide; also recorded: much better than the mutated variant; also recorded: recognizes less robustly the mutated peptide variant
- staining of endogenous Nodal forms in Western blot [3]: able to stain the immature form pro-Nodal
- Nodal expression [4]: more dramatic reduction in Nodal expression
- Nodal expression ([4]; listed as 3D1 mAb): significantly reduced
- Kd [5]: 6.6 nM
